From patent publication US20120196760A1, “METHODS AND COMPOSITIONS FOR IDENTIFYING MODULATORS OF ANTI-TETHERIN ACTIVITY TO INHIBIT P[…] VIRUSES” (CHILDRENS HOSPITAL LOS ANGELES, priority 2008, published 2012)

System: HIV-1 VLPs
Experiment: HIV-1 VLP release from cells expressing Tetherin constructs (Western blot, % VLP release)
Assay type: cell-based
Settings: Tetherin expressed alone, no anti-Tetherin; FIG. 9B

B1: full-length human Tetherin: human cellular protein that tethers newly budded HIV particles at the cell surface and restricts virus release (protein)
chain: MASTSYDYCRVPMEDGDKRCKLLLGIGILVLLIIVILGVPLIIFTIKANSEACRDGLRAVMECRNVTHLLQQELTEAQKGFQDVEAQAATCNHTVMALMASLDAEKAQGQKKVEELEGEITTLNHKLQDASAEVERLRRENQVLSVRIADKKYYPSSQDSS
  reduction of release of Virus-Like Particles (VLPs): about 95%
